Article doi:10.1101/2021.04.07.438830 (bioRxiv, 2021)

Biological target: T1, GST-KPC2 (UniProt Q9BSL1 1-405)
T1 sequence: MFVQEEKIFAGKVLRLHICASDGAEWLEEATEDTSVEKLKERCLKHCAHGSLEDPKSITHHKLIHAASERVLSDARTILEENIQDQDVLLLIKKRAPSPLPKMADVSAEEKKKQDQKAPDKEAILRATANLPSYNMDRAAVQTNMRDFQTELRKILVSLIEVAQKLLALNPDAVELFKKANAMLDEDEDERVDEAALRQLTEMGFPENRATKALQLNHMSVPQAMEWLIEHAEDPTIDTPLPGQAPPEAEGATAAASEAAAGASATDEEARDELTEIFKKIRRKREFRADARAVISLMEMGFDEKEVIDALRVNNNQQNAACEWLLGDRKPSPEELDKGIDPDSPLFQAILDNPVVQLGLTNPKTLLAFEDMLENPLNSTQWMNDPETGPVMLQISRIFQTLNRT
Assay: pull-down

binding result: binds
B1: GST-p65 (1-307) (domain or fragment)
chain: MDELFPLIFPAEPAQASGPYVEIIEQPKQRGMRFRYKCEGRSAGSIPGERSTDTTKTHPTIKINGYTGPGTVRISLVTKDPPHRPHPHELVGKDCRDGFYEAELCPDRCIHSFQNLGIQCVKKRDLEQAISQRIQTNNNPFQVPIEEQRGDYDLNAVRLCFQVTVRDPSGRPLRLPPVLSHPIFDNRAPNTAELKICRVNRNSGSCLGGDEIFLLCDKVQKEDIEVYFTGPGWEARGSFSQADVHRQVAIVFRTPPYADPSLQAPVRVSMQLRRPSDRELSEPMEFQYLPDTDDRHRIEEKRKRTYE
